These results are taken from article PMC11087270, “CryoEM structures reveal how the bacterial flagellum rotates and switches direction” (Nature Microbiology, 2024).

Where “and” joins values, the source holds several entries; their conditions need not be identical. Identical values can stand only once.

Broadly, the stoichiometry N is a count of units in the complex or per binding partner.

To fix the notation:
B1: FliG ΔPAA (S. enterica serovar typhimurium), extreme CW-biased mutant (natural protein)
chain: MSNLSGTDKSVILLMTIGEDRAAEVFKHLSTREVQALSTAMANVRQISNKQLTDVLSEFEQEAEQFAALNINANEYLRSVLVKALGEERASSLLEDILETRDTTSGIETLNFMEPQSAADLIRDEHPQIIATILVHLKRSQAADILALFDERLRHDVMLRIATFGGVQLAELTEVLNGLLDGQNLKRSKMGGVRTAAEIINLMKTQQEEAVITAVREFDGELAQKIIDEMFLFENLVDVDDRSIQRLLQEVDSESLLIALKGAEPPLREKFLRNMSQRAADILRDDLANRGPVRLSQVENEQKAILLIVRRLAETGEMVIGSGEDTYV
notes: FliG, S. enterica serovar typhimurium, with the Pro-Ala-Ala (PAA) motif FliG 169-171 deleted; also called switch_(ΔPAA); CW-locked; source: switch particles containing the FliG ΔPAA mutation; expression and purification as told for the FliFGMN subunits (E. coli BL21-Gold, differential membrane extraction)
B2: FliF (S. enterica serovar typhimurium), subunit of the MS-ring whose C-terminus (FliFC) lies in the C-ring (natural protein)
chain: MSATASTATQPKPLEWLNRLRANPRIPLIVAGSAAVAIVVAMVLWAKTPDYRTLFSNLSDQDGGAIVAQLTQMNIPYRFANGSGAIEVPADKVHELRLRLAQQGLPKGGAVGFELLDQEKFGISQFSEQVNYQRALEGELARTIETLGPVKSARVHLAMPKPSLFVREQKSPSASVTVTLEPGRALDEGQISAVVHLVSSAVAGLPPGNVTLVDQSGHLLTQSNTSGRDLNDAQLKFANDVESRIQRRIEAILSPIVGNGNVHAQVTAQLDFANKEQTEEHYSPNGDASKATLRSRQLNISEQVGAGYPGGVPGALSNQPAPPNEAPIATPPTNQQNAQNTPQTSTSTNSNSAGPRSTQRNETSNYEVDRTIRHTKMNVGDIERLSVAVVVNYKTLADGKPLPLTADQMKQIEDLTREAMGFSDKRGDTLNVVNSPFSAVDNTGGELPFWQQQSFIDQLLAAGRWLLVLVVAWILWRKAVRPQLTRRVEEAKAAQEQAQVRQETEEAVEVRLSKDEQLQQRRANQRLGAEVMSQRIREMSDNDPRVVALVIRQWMSNDHE
notes: FliF, S. enterica serovar typhimurium, expressed from the fliF gene on plasmid pKLR3; residues 50-428 modelled in the MS-ring and 514-560 (FliFC) in the C-ring; no tag is told; also called MS-ring subunit; source: E. coli BL21-Gold, coexpressed from plasmid pKLR3; MSC-ring particles partially purified by differential membrane extraction
B3: FliG (S. enterica serovar typhimurium), wild type, C-ring switch subunit (natural protein, UniProt P0A1J9 1-331, looked up)
chain: MSNLSGTDKSVILLMTIGEDRAAEVFKHLSTREVQALSTAMANVRQISNKQLTDVLSEFEQEAEQFAALNINANEYLRSVLVKALGEERASSLLEDILETRDTTSGIETLNFMEPQSAADLIRDEHPQIIATILVHLKRSQAADILALFDERLRHDVMLRIATFGGVQPAALAELTEVLNGLLDGQNLKRSKMGGVRTAAEIINLMKTQQEEAVITAVREFDGELAQKIIDEMFLFENLVDVDDRSIQRLLQEVDSESLLIALKGAEPPLREKFLRNMSQRAADILRDDLANRGPVRLSQVENEQKAILLIVRRLAETGEMVIGSGEDTYV
notes: FliG, S. enterica serovar typhimurium, expressed from the fliG gene on plasmid pKLR3; residues 1-331 modelled in the C-ring; no tag is told; also called FliGD1; FliGD2; source: E. coli BL21-Gold, coexpressed from plasmid pKLR3; MSC-ring particles partially purified by differential membrane extraction
B4: FliN (S. enterica serovar typhimurium), C-ring switch subunit (natural protein, UniProt P26419 1-137, looked up)
chain: MSDMNNPSDENTGALDDLWADALNEQKATTTKSAADAVFQQLGGGDVSGAMQDIDLIMDIPVKLTVELGRTRMTIKELLRLTQGSVVALDGLAGEPLDILINGYLIAQGEVVVVADKYGVRITDIITPSERMRRLSR
notes: FliN, S. enterica serovar typhimurium, expressed from the fliN gene on plasmid pKLR3; residues 45/59/63-137 of the three non-equivalent copies modelled in the C-ring; no tag is told; also called FliNC; FliN1; source: E. coli BL21-Gold, coexpressed from plasmid pKLR3; MSC-ring particles partially purified by differential membrane extraction
B5: FliM (S. enterica serovar typhimurium), C-ring switch subunit (natural protein, UniProt P26418 1-334, looked up)
chain: MGDSILSQAEIDALLNGDSDTKDEPTPGIASDSDIRPYDPNTQRRVVRERLQALEIINERFARQFRMGLFNLLRRSPDITVGAIRIQPYHEFARNLPVPTNLNLIHLKPLRGTGLVVFSPSLVFIAVDNLFGGDGRFPTKVEGREFTHTEQRVINRMLKLALEGYSDAWKAINPLEVEYVRSEMQVKFTNITTSPNDIVVNTPFHVEIGNLTGEFNICLPFSMIEPLRELLVNPPLENSRHEDQNWRDNLVRQVQHSELELVANFADIPLRLSQILKLKPGDVLPIEKPDRIIAHVDGVPVLTSQYGTVNGQYALRVEHLINPILNSLNEEQPK
notes: FliM, S. enterica serovar typhimurium, expressed from the fliM gene on plasmid pKLR3; FliML1 31-50, FliMmid 51-230, FliML2 231-256 and FliMC 257-330 described in the C-ring; no tag is told; also called FliML1; FliMmid; source: E. coli BL21-Gold, coexpressed from plasmid pKLR3; MSC-ring particles partially purified by differential membrane extraction

Data set [1] addresses B2. Put plainly: cryo-EM structure; MSC-ring particles with FliG ΔPAA (CW pose); C34 symmetry applied, symmetry expansion and local refinement of three staves; 4.6 Å. As to conditions: both partners purified.
Data set [2] concerns the molecule itself. The description is as above.
Data set [3] concerns the molecule itself. Put plainly: cryo-EM structure; wild-type MSC-ring particles (CCW pose); MS-ring or C-ring removed by particle subtraction; C-ring 34-mer at 4.0 Å (33-, 35-, 36-mer classes too), MS-ring 33-mer at 3.4 Å.
Data set [4] has as its target B2. The description is as above. As to conditions: both partners purified.
Data set [5] addresses B5. Described as above. The following applies: both partners purified.

B1: the binding result in data set [1] and in data set [2] was “binds” each time.

Regarding B2, the “stoichiometry N” value in data set [3] was 33.

Take B3: in data set [4], the binding result is given as “binds”. For the same molecule, in data set [3], the “stoichiometry N” value is 34 and 33 and 35 and 36.

As to B4, in data set [2], the binding result is given as “binds”. In addition, in data set [5], the “stoichiometry N” value was 3 FliN per FliM.

Take B5: the “stoichiometry N” value in data set [3] is 34.
